According to patent publication US20020164595, “Sequence specific DNA binding by p53” (published 2002):

What was measured:
[1] = target: T1, p53 wild-type (Homo sapiens, UniProt P04637 P04637:1-393); assay: pulldown; monomer alone, not shown; conditions: chain copies: 4
[2] = target: T1, p53 wild-type; assay: pulldown; conditions: chain copies: 4; label: 32P
Source text: FIG. 11A. […] For each sample, the control lane (C) contained 2% of the total DNA used in the binding reaction, and was composed of two fragments: 2.9 kb vector DNA fragment, and a fragment of 40 to 80 bp containing no insert (lane 9; XhoI plus Pst1 digest of pBluescript II SK+), the 10 bp consensus monomer sequence 5′-[…]-3′ (lane 5), or multimers of this sequence arranged as indicated (lanes 1 to 4, 6, to 8). Bound DNA from the IP is shown in the B lanes.
To determine if the 10 bp consensus monomer could bind p53, a synthetic oligonucleotide (5′-[…]-3′) containing the consensus sequence was studied. Oligonucleotide duplexes were tested either directly or after cloning into plasmid vectors. […] Two variants of the consensus motif were also tested for binding. In the first, the two critical G:C bp's at position 4 and 6 of the monomer were substituted with A:T bp's (FIG. 10, synthetic oligonucleotides 1,2).

[3] = target: T1, p53 wild-type; assay: pulldown; conditions: chain copies: 4

T1 sequence (P04637 whole entry, one chain of several): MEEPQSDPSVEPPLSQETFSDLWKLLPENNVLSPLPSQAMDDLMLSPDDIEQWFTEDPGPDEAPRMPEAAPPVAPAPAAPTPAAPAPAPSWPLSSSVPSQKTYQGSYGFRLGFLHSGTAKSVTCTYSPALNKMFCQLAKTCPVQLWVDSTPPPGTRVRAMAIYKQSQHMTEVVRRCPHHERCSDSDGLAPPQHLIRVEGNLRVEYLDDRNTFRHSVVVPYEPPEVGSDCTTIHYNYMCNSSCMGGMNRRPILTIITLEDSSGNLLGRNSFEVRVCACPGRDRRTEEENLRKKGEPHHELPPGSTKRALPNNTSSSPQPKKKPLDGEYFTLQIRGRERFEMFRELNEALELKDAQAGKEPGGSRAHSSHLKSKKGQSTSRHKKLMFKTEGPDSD

B1: consensus monomer (dsDNA)
DNA 1: AGGCATGTCT
DNA 2: AGACATGCCT
[1]
  binding result: no binding

B2: synthetic oligo 9 (cloned monomer) (dsDNA)
DNA 1: TGCAGGAATTCGATAGGCATGTCTATCAAGCTTATCGAT
DNA 2: ATCGATAAGCTTGATAGACATGCCTATCGAATTCCTGCA
[2]
  binding result: no binding

B3: synthetic oligo 1 (A:T-substituted monomer) (dsDNA)
DNA 1: AGGAATTCCT
DNA 2: AGGAATTCCT
[3]
  binding result: no binding

B4: synthetic oligo 6 (cloned consensus dimer) (dsDNA)
DNA 1: TGCAGGAATTCGATAGGCATGTCTAGGCATGTCTATCAAGCTTATCGAT
DNA 2: ATCGATAAGCTTGATAGACATGCCTAGACATGCCTATCGAATTCCTGCA
[2]
  binding result: binds

B5: synthetic oligo 7 (cloned consensus dimer, inverted) (dsDNA)
DNA 1: TGCAGGAATTCGATAGGCATGTCTAGACATGCCTATCAAGCTTATCGAT
DNA 2: ATCGATAAGCTTGATAGGCATGTCTAGACATGCCTATCGAATTCCTGCA
[2]
  binding result: binds

B6: synthetic oligo 8 (cloned consensus dimer, inverted) (dsDNA)
DNA 1: TGCAGGAATTCGATAGACATGCCTAGGCATGTCTATCAAGCTTATCGAT
DNA 2: ATCGATAAGCTTGATAGACATGCCTAGGCATGTCTATCGAATTCCTGCA
[2]
  binding result: binds

B7: fragment A subfragment 5 (dsDNA)
DNA 1: AGTGAAAGCAGGTAGATTGCCTTGCCTGGACTTGCCTGGCCTTGCCTTTTCTTTC
DNA 2: GAAAGAAAAGGCAAGGCCAGGCAAGTCCAGGCAAGGCAATCTACCTGCTTTCACT
[3]; label: 32P
  binding result: binds

B8: synthetic oligo 5 (direct half-site repeats) (dsDNA)
DNA 1: AGGCAAGGCAAGGCAAGGCA
DNA 2: TGCCTTGCCTTGCCTTGCCT
[3]
  binding result: no binding

B9: synthetic oligo 2 (A:T-substituted dimer) (dsDNA)
DNA 1: AGGAATTCCTAGGAATTCCT
DNA 2: AGGAATTCCTAGGAATTCCT
[3]
  binding result: no binding
